In US20120156175A1 one finds ability to induce the migration of neural stem cells (Boyden chamber assay, HB1.F3 cells, against cells not treated with periostin) data, which are given here for one substance.

The target of the assay is integrin alpha V beta 5 (human) (UniProt P06756). Put plainly: cell-based or functional assay.
UniProt P06756, sequence (P06756 31-1048, chain 1 of 2): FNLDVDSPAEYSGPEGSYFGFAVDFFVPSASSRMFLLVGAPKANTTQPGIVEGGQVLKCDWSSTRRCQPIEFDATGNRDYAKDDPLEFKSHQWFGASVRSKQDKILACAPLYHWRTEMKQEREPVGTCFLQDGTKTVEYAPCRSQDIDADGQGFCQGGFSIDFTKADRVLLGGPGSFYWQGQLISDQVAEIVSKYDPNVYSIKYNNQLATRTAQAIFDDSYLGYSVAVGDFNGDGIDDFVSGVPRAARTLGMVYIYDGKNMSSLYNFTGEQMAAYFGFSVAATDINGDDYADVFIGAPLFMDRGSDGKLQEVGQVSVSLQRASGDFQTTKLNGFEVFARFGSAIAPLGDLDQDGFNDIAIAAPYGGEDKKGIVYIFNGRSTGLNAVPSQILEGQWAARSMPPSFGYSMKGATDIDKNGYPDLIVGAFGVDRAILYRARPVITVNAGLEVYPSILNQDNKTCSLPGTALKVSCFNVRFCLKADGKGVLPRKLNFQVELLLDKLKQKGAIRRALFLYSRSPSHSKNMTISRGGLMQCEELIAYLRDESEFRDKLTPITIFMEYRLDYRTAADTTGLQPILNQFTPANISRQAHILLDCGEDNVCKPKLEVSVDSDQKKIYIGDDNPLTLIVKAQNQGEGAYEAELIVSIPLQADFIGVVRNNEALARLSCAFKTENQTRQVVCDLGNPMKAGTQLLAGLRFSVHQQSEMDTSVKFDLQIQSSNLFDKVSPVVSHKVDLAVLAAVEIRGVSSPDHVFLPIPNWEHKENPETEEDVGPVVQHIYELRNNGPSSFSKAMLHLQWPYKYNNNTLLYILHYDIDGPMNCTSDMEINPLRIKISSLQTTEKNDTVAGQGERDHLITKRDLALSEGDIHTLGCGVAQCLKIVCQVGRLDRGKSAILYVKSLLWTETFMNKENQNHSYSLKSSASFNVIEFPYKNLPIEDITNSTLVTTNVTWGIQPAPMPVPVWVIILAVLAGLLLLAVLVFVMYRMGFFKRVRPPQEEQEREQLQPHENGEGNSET
UniProt P06756, sequence (P18084 24-799, chain 2 of 2, further chain): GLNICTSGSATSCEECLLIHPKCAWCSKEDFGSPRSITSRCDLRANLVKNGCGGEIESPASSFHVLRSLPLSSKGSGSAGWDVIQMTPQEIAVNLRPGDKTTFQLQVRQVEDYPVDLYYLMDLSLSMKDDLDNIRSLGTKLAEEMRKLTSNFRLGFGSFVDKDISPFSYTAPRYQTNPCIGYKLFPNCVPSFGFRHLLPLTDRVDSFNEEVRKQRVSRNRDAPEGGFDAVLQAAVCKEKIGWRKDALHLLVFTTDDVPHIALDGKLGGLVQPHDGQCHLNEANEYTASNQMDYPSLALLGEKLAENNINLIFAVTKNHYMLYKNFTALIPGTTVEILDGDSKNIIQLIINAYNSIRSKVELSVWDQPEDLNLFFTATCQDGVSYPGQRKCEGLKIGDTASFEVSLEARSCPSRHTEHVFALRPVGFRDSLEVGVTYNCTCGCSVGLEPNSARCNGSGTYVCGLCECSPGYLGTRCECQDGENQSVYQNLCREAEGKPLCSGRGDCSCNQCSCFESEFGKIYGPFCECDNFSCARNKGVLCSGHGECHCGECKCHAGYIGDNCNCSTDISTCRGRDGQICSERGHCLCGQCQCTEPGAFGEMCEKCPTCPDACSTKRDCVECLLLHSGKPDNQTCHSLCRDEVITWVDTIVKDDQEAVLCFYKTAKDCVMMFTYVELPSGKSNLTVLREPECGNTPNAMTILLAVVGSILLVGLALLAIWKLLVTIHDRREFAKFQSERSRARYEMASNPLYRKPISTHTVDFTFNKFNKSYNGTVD

On to “periostin (from UniProt Q15063 22-779) (ligand)”, for which the ability to induce the migration of neural stem cells (Boyden chamber assay, HB1.F3 cells, against cells not treated with periostin) is 100%.
